Test results from US20240252534A1.

Tests used:
[1] = molecular target: Recombinant PSMA-His (sino biologicals) (UniProt Q04609); assay: SPR, Biacore T200, pH 6; antibody captured on Protein A chip, PSMA-His as analyte, 1:1 Langmuir fit
[2] = molecular target: Recombinant PSMA-His (sino biologicals) (UniProt Q04609); assay: SPR, Biacore T200, pH 7; antibody captured on Protein A chip, PSMA-His as analyte, 1:1 Langmuir fit
[3] = molecular target: Recombinant PSMA-His (sino biologicals) (UniProt Q04609); assay: SPR, Biacore T200, pH 6.5; antibody captured on Protein A chip, PSMA-His as analyte, 1:1 Langmuir fit
[4] = molecular target: Recombinant PSMA-His (sino biologicals) (UniProt Q04609); assay: SPR, Biacore T200, pH 7.4; antibody captured on Protein A chip, PSMA-His as analyte, 1:1 Langmuir fit

Chain of Recombinant PSMA-His (sino biologicals) (Q04609 44-750 limits assumed): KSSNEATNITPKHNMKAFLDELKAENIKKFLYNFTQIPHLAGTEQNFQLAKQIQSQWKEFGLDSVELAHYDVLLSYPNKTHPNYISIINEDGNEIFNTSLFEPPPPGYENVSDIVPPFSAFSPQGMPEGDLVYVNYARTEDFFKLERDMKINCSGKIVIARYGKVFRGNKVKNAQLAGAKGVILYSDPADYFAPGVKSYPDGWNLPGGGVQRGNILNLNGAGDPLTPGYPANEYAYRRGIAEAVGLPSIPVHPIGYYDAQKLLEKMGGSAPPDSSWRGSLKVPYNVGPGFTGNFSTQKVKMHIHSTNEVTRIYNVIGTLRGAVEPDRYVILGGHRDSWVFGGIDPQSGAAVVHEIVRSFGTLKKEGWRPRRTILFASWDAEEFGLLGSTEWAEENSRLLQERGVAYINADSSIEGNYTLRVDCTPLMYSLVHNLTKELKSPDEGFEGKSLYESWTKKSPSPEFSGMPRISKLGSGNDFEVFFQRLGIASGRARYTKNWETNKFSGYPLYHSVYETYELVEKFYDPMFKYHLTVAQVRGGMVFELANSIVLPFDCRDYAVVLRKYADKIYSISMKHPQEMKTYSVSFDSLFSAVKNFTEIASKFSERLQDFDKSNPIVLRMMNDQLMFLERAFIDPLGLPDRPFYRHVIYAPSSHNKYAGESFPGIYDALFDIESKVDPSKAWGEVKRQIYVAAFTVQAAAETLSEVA

- Kd [1]: 0.551 nM
- Kd [2]: 2.54 nM
- Kd [3]: 0.984 nM
- Kd [4]: 2.76 nM
Substance: Anti-PSMA antibody J591 (UPenn)
